The source of these data is US20240247072A1 (KEYMED BIOSCIENCES, published 2024).

Residue numbers refer to the chain shown, from its start.

Assay [1] has as its target T1, cynomolgus monkey CD70, full length, on CHO cells (CHO-monkey CD70-D01) (cynomolgus monkey, UniProt A0A2K5WTU9 1-190).
T1 construct: whole, on cells; Stably transfected CHO cells; also called CHO-cynomolgus monkey CD70
T1 sequence: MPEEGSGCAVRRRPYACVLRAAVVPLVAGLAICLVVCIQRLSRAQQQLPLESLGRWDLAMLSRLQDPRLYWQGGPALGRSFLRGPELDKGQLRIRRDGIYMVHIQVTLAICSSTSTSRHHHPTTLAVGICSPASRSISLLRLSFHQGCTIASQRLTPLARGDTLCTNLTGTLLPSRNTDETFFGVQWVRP
Put plainly: flow cytometry, chimeric IgG on CHO-cynomolgus monkey CD70 cells. On the procedure: (§1) Different cells in logarithmic growth phase were taken, blocked with 3% BSA for 30 minutes, and plated to a 96-well U-plate at 5×10⁴ cells/100 μL. The centrifuge was performed at 1100 rpm for 3 minutes. The supernatant was discarded and the cells were gently tapped to be loosening. 50 μL of gradient diluted antibody was added (antibody concentration: from 30 μg/mL, 3-fold dilution for 5 gradients) per well, and incubated at 4° C. for 1 hour. After incubation, 180 μL of 0.5% BSA was added to each well for washing 3 times. 30 μL/well of secondary antibody AlexaFluro647 anti-human IgG (Jackson Immuno Research, Cat. No: 109-606-170) was added and incubated at 4° C. for 45 minutes. At the end of the incubation, each well was washed 3 times with 180 μL of 0.5% BSA and finally resuspended in 50 μL of PBS for iQue (Intellicyt, USA) assay.
In general terms: Flow cytometry measures light scatter and fluorescence of single cells or particles in a stream.

The target of assay [2] is T2, human CD70, full length, on CHO cells (CHO-human CD70-B07) (human, UniProt P32970 1-193).
T2 construct: whole, on cells; Stably transfected CHO cells; also called CHO-CD70
T2 sequence (looked up): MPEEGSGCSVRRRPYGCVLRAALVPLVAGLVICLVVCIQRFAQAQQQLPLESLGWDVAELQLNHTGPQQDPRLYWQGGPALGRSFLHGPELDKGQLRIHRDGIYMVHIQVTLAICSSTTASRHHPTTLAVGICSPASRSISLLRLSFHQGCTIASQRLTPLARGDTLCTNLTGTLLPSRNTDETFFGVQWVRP
The assay is described as follows: flow cytometry, chimeric IgG on CHO-human CD70 cells. The protocol:
as §1

Assay [3] concerns the target T3, recombinant cynomolgus monkey CD70 protein (cynomolgus monkey, UniProt A0A2K5WTU9 39-190).
T3 construct: it stands only in column heads ('Monkey', 'Cynomolgus Monkey CD70/CD27') and in result sentences; also called Monkey (ELISA)
T3 sequence: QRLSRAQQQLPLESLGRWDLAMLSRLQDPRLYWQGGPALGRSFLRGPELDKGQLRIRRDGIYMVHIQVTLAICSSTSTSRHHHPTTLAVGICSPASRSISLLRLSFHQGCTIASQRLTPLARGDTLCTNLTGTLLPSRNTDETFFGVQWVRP
The assay is described as follows: competition ELISA, chimeric IgG titrated, CD27 coated, biotin-CD70, cynomolgus pair. The protocol:
(§2) The recombinant CD27 protein was coated at 1 μg/mL in a 96-well microtiter plate and incubated overnight at 4° C. The next day, the plate was washed 3 times with PBS, added with 200 μL of 2% defatted dry milk/PBS, blocked at room temperature for 2 hours, and washed once with PBS. The purified chimeric antibody was divided to 12 concentration gradients starting at 100 nM and diluted in a 1:3 gradient. […] of the antibody was added per well and incubated at room temperature for 30 minutes. […] The plate was washed 3 times with PBST and PBS and dried by spinning. A secondary antibody Streptavidin-coupled horseradish peroxidase SA-HRP (BD bioscience, cat. No: 6222697) was diluted with 0.5% BSA in a ratio of 1:8000. 100 μL of the diluent was added into each well and incubated at room temperature for 30 minutes. The plate was washed 3 times with PBST and PBS and dried by spinning. 100 μl of color development solution (TMB solution, Sigma, Cat. No: T2885) was added into each well and protected from light at 37° C. for reaction. After the substrate developed moderately, 50 μl of H₂SO₄ was added into each well to terminate the reaction. The OD450 nm was determined by using an enzyme-linked detector within 30 minutes, and the data was collected. The results were calculated by using Graph Pad Prism 5 software.
Background: An ELISA detects its analyte on a solid surface through an enzyme-linked reagent.

The target in assay [4] is T4, recombinant trimeric protein of human CD70 extracellular region (human CD70 mIgG Fc (knob) / mouse IgG Fc … (human, UniProt P01863 98-330 = IgG part)).
T4 construct: The ELISA and Octet texts say only 'recombinant CD70 protein' / 'CM352 antigen'; also called recombinant human CD70 protein; recombinant CD70 protein
T4 chain 1: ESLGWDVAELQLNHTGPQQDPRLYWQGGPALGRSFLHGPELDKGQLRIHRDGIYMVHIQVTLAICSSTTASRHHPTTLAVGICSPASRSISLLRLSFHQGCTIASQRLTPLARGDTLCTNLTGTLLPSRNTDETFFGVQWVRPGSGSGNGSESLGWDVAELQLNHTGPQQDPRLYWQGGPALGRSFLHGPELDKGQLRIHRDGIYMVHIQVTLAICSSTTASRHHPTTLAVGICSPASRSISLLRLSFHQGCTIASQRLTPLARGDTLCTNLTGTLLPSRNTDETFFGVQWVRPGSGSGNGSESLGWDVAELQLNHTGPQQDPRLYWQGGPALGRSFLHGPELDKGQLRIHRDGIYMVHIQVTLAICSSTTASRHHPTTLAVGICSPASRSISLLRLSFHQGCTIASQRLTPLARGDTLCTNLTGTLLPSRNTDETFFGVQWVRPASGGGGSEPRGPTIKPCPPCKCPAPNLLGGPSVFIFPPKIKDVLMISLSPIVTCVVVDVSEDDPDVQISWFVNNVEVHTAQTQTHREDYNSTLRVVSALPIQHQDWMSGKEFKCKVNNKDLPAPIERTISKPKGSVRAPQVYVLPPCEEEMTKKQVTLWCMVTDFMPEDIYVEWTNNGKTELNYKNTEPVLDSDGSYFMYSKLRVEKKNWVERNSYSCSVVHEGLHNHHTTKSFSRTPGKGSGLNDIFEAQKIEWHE
T4 chain 2: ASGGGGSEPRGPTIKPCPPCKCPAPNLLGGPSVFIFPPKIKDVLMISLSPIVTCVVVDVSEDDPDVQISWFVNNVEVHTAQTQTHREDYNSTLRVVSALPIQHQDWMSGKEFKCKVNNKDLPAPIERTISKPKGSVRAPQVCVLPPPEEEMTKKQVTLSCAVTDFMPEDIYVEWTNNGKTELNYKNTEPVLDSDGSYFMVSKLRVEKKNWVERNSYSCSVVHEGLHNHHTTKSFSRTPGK
The assay is described as follows: competition ELISA, chimeric IgG titrated, CD27 coated, biotin-CD70, human pair. On the procedure: as §2

In assay [5] the target is T4, recombinant trimeric protein of human …. The assay is described as follows: ELISA binding, hybridoma supernatant, human CD70.
Assay [6] concerns the target T2, human CD70, full length, on CHO cells …. Put plainly: flow cytometry, hybridoma supernatant, cell surface human CD70.

B1: 25H7 chimeric antibody (antibody, V domains shown)
VH: EIQLVQSGPELKKPGETVKISCKASGYTFTNYGMNWVKQTPGKGLKWMGWINTDTGEPTYADDFKGRFAFSLETSASTAYLQINNLKNEDMATYFCAREEDYRYVFNYWGQGTTLTVSS
VL: DIQMTQTTSSLSASLGDRVTISCRASQDISNYLNWYQQKPDGTVKLLIYYTSRLHSGVPSRFSGSGSGTDYSLTISNLEQEDIATYFCQQGVTLPLTFGAGTKLELK
What is called EC50 is the midpoint of the concentration-response curve. For orientation: IC50 means the point on the concentration scale where inhibition reaches its midpoint. As for B1, the EC50 was 17.4 nM in assay [1] and 16.1 nM in assay [2]. Also, the half-maximal inhibitory concentration (IC50) worked out at 0.15 nM in assay [3] and 0.16 nM in assay [4].

B2: 26G11 chimeric antibody (antibody, V domains shown)
VH: QVQLQQSGPELVKPGASVKISCKTSGYTFADYTMHWVRQSQGKSLEWIGDIYPNDGGPNNNQKFKDKATLTVDKSSSTAYMELRSLTSEDSAVYYCARPFYYGNYAGFAFWGQGTLVTVSA
VL: EMVLTQSPAIMSASPGEKVTMTCSASSSVSYMYWYQQKPGSSPRLLIYDTSNLASGVPVRFSGSGSGTSYSLTISRMEAEDAATYYCQQWSSYPLTFGAGTRLEIK
For B2, the results for the 50% effective concentration (EC50) in assay [1] and in assay [2] were 21 nM and 22.5 nM, respectively. Further, the 50% inhibitory concentration (IC50) in assay [3] is 0.21 nM; in assay [4], 0.17 nM.

B3: 1H21-D5 hybridoma antibody (antibody, V domains shown)
VH: QVQLKQSGPGLVQPSQSLSITCTVSGFSLTSYGIHWVRQSPGKGLEWLGVIWSGGSTDFNAAFISRLSISKDNSKSQVFFKVISLQANDTAIYYCGRNSYYGNLYAMDYWGQGTSVTVSS
VL: DIVLTQSPTSLAVSLGQRATISCRASKSVSASGYSFMHWYQQKPGQPPKLLIYLASNLESGVPARFSGSGSGTDFTLNIHPVEEEDAATYYCQHSRELPLTFGAGTKLELK
notes: Mouse antibody in hybridoma culture supernatant
Regarding B3, the binding result in assay [5] and in assay [6] was “binds” in each case.

B4: 4H6-A6 hybridoma antibody (antibody, V domains shown)
VH: QVQLKQSGPGLVQPSQKLSITCTVSGFSLTTYGVHWIRQSPVKGLEWLGVIWTTGVVDYNAAFISRLNITKDNSKSQIFFKMNSLQTNDTAMYYCARNSYYGNLYVMDYWGQGTSVTVSS
VL: B3 VL with T9A, A12P, V13I, S14F, K27R, S35T, A55V, L98F
notes: as for B3
As for B4, the binding result in assay [5] and in assay [6] was “binds” each time.

B5: 10C19-D11 hybridoma antibody (antibody, V domains shown)
VH: QVQLQQSGPGLVQPSQSLSITCTVSGFSLTTYAVHWFRQSPGQGLEWLGVIWSTGITDFNAAFISRLNINKDSSKSQIFFKMISLQPNDTAIYYCGRNSYYGNLYAMDYWGQGTSVTVSS
VL: B3 VL with S35N, G72E, E85G
notes: as for B3
For B5, the binding result in assay [5] and in assay [6] was “binds” throughout.

B6: 17A9-G5 hybridoma antibody (antibody, V domains shown)
VH: QVQLKQSGPGLVQPSQSLSITCTVSGFSLTTYGVHWVRQSPGKGLEWLGVIWSAGITDYNAPFISRLSITKDNSKSQVFFKMNSLQADDTAIYYCARNDYYGNLYAMDYWGQGTSVTVSS
VL: B3 VL with T9A, S26N, S35T, A55V, E59A, E84G, L98F
notes: as for B3
For the molecule B6, the binding result in assay [5] and in assay [6] was “binds” each time.

B7: 16J15-H3 hybridoma antibody (antibody, V domains shown)
VH: B6 VH with G26N, T30S, S53G, A54G, I56Y, P62A, S68T, T70S, D99N
VL: B3 VL with T9A, A12P, S26N, E59D, A87T, L98F
notes: as for B3
For the molecule B7, the binding result in assay [5] and in assay [6] was “binds” in each case.

B8: 36E7-D6 hybridoma antibody (antibody, V domains shown)
VH: QVQLKQSGPGLVQPSQSLSITCTVSDFSLTIFGVHWVRQSPGKGLEWLGVIWRDGSTDYNAALMSRLNITKDNSKSQVFFKMNSLQTDDTAIYYCAKNRRYDYAWFPYWGQGTLVSVSA
VL: B3 VL with T9A, M37L, A55T, E97D, L98F, L100P
notes: as for B3
For B8, the binding result in assay [5] and in assay [6] was “binds” in each case.

B9: 42H19-G4 hybridoma antibody (antibody, V domains shown)
VH: B8 VH with L11P, V34I, A61V
VL: B3 VL with T9A, M37L, A55T, E97D, L98F, L100P
notes: as for B3
For the molecule B9, the binding result in assay [5] and in assay [6] was “binds” throughout.
